Values of other authors, collected in paper PMC5805400.
Where two headings read alike, the source gives them in different places.

Experiments:
[1] = biological target: ICP47 (Human alphaherpesvirus 1) (UniProt P03170)
[2] = biological target: ICP47 (Human alphaherpesvirus 1) (UniProt P03170); remark: listed apart in the source
[3] = biological target: CYP2B4 (Oryctolagus cuniculus) (UniProt P00178)
[4] = biological target: CYP2B4 (Oryctolagus cuniculus) (UniProt P00178); remark: listed apart in the source
CYP2J2 (Homo sapiens) = CYP2J2 (Homo sapiens) (UniProt P51589); experiment: spin shift
Chain of UniProt P51589 (P51589 whole entry): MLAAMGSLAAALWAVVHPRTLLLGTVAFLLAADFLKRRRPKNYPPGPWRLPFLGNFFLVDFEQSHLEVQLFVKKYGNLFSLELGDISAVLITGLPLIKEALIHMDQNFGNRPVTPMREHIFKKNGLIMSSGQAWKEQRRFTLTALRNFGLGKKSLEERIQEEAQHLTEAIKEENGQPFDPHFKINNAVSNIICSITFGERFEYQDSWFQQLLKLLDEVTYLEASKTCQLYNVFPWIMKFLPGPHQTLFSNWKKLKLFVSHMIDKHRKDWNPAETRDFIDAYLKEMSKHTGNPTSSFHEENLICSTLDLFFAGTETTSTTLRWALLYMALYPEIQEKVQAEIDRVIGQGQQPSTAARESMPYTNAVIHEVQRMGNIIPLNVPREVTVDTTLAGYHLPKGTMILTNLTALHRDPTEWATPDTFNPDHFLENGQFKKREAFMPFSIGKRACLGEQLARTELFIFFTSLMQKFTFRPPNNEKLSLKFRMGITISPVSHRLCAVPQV

Chain of UniProt P00178 (P00178 whole entry): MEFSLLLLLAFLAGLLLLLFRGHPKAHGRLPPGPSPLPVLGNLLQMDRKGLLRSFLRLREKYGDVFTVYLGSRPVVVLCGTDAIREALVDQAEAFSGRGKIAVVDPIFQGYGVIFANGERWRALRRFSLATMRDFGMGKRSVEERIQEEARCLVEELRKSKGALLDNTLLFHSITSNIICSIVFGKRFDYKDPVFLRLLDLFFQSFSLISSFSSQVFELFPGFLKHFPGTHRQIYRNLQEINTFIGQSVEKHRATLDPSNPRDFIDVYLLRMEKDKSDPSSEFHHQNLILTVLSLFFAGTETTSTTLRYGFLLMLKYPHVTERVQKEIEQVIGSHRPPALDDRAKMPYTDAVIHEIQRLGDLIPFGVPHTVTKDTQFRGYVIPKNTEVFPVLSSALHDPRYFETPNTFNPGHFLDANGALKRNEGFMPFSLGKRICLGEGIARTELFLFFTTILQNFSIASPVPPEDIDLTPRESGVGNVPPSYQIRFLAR
Chain of UniProt P03170 (P03170 whole entry): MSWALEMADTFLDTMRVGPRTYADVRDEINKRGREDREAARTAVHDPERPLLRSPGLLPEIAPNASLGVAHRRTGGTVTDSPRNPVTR

Substance: TAP (from UniProt Q03518)
- Ki [1]: 210 nM
- Ki [2]: 280 nM

Substance: Cytochrome b5 (from UniProt P00169)
- Kd [3]: 140 nM
- Kd [4]: 8 nM

Substance: CPR (from UniProt P16435)
- Kd (CYP2J2 (Homo sapiens)): 120 nM
